From patent US20220291215A1

What was measured:
[1] = molecular target: DP4/MAGE-A3243-258 TCR, clone R12C9
[2] = molecular target: DP4/MAGE-A3243-258 TCR, clone R12C9; remark: listed apart in the source

Control (peptide-MHC) was tested, and the % dimer+ CD4+ cells [1] was 0.4% and the % dimer+ Vβ22+ cells [2] was 0.1%.
